Assay results taken from publication PMC5536962 (Cell reports, 2015).

T1: Mcm10 (GST tag removed) (yeast, UniProt P32354 1-571)
T1 sequence (looked up): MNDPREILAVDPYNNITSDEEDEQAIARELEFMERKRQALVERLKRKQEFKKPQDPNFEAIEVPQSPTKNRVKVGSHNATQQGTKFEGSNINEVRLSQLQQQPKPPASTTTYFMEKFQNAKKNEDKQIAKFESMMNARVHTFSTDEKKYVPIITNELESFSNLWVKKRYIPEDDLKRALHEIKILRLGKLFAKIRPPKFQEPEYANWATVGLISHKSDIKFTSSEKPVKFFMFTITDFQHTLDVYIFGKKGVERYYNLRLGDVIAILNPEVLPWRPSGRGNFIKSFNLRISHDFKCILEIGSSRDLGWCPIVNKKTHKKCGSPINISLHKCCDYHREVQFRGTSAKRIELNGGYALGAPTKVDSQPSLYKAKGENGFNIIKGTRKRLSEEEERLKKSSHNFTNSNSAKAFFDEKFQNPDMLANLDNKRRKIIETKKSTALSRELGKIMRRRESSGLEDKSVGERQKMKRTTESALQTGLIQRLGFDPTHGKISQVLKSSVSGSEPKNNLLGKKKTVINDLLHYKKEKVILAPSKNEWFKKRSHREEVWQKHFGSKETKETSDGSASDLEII

T2: GST-Mcm10 (yeast, UniProt P32354 1-571)
T2 sequence (looked up): T1 sequence (looked up)

B1: GST-Mcm4 (1-471) (domain or fragment, yeast, UniProt P30665 1-471, looked up)
chain: MSQQSSSPTKEDNNSSSPVVPNPDSVPPQLSSPALFYSSSSSQGDIYGRNNSQNLSQGEGNIRAAIGSSPLNFPSSSQRQNSDVFQSQGRQGRIRSSASASGRSRYHSDLRSDRALPTSSSSLGRNGQNRVHMRRNDIHTSDLSSPRRIVDFDTRSGVNTLDTSSSSAPPSEASEPLRIIWGTNVSIQECTTNFRNFLMSFKYKFRKILDEREEFINNTTDEELYYIKQLNEMRELGTSNLNLDARNLLAYKQTEDLYHQLLNYPQEVISIMDQTIKDCMVSLIVDNNLDYDLDEIETKFYKVRPYNVGSCKGMRELNPNDIDKLINLKGLVLRSTPVIPDMKVAFFKCNVCDHTMAVEIDRGVIQEPARCERIDCNEPNSMSLIHNRCSFADKQVIKLQETPDFVPDGQTPHSISLCVYDELVDSCRAGDRIEVTGTFRSIPIRANSRQRVLKSLYKTYVDVVHVKKVSD
B2: 6His-Mcm2 (1-299) (domain or fragment, yeast, UniProt P29469 1-299, looked up)
chain: MSDNRRRRREEDDSDSENELPPSSPQQHFRGGMNPVSSPIGSPDMINPEGDDNEVDDVPDIDEVEEQMNEVDLMDDNMYEDYAADHNRDRYDPDQVDDREQQELSLSERRRIDAQLNERDRLLRNVAYIDDEDEEQEGAAQLDEMGLPVQRRRRRRQYEDLENSDDDLLSDMDIDPLREELTLESLSNVKANSYSEWITQPNVSRTIARELKSFLLEYTDETGRSVYGARIRTLGEMNSESLEVNYRHLAESKAILALFLAKCPEEMLKIFDLVAMEATELHYPDYARIHSEIHVRISD
B3: GST-Mcm6 (1-439) (domain or fragment, yeast, UniProt P53091 1-439, looked up)
chain: MSSPFPADTPSSNRPSNSSPPPSSIGAGFGSSSGLDSQIGSRLHFPSSSQPHVSNSQTGPFVNDSTQFSSQRLQTDGSATNDMEGNEPARSFKSRALNHVKKVDDVTGEKVREAFEQFLEDFSVQSTDTGEVEKVYRAQIEFMKIYDLNTIYIDYQHLSMRENGALAMAISEQYYRFLPFLQKGLRRVVRKYAPELLNTSDSLKRSEGDEGQADEDEQQDDDMNGSSLPRDSGSSAAPGNGTSAMATRSITTSTSPEQTERVFQISFFNLPTVHRIRDIRSEKIGSLLSISGTVTRTSEVRPELYKASFTCDMCRAIVDNVEQSFKYTEPTFCPNPSCENRAFWTLNVTRSRFLDWQKVRIQENANEIPTGSMPRTLDVILRGDSVERAKPGDRCKFTGVEIVVPDVTQLGLPGVKPSSTLDTRGISKTTEGLNSGVTG

Legend:
Assay in all cases: pull-down
[1] = biological target: T1, Mcm10 (GST tag removed)
[2] = biological target: B3
[3] = biological target: B1
[4] = biological target: T2, GST-Mcm10

Row | Binder | binding result [1] | binding result [2] | binding result [3] | binding result [4]
1 | B1 | binds |  |  | 
2 | B2 |  | binds | binds | binds
3 | B3 | binds |  |  | 
